What was measured:
[1] = molecular target: T1, KIR3DL2 mutant having I60N and G62S substitutions (human, UniProt P43630 22-455); assay: binding to KIR3DL2 mutants
T1 construct: It says 'mutants'; also called mutants having 160N and G62S substitutions

[2] = molecular target: KIR3DL2 mutant 11A1 (V178A, H180S) (human, UniProt P43630 22-455); assay: binding to cells transfected with KIR3DL2 mutants
[3] = molecular target: KIR3DL2 mutant M11A4 (E130S, H131S, R145S) (human, UniProt P43630 22-455); assay: binding to cells transfected with KIR3DL2 mutants
Sequence of KIR3DL2 mutant M11A4 (E130S, H131S, R145S) (P43630 other isoform, or with tags, fused parts or gaps E130S H131S R145S E130S H131S R145S): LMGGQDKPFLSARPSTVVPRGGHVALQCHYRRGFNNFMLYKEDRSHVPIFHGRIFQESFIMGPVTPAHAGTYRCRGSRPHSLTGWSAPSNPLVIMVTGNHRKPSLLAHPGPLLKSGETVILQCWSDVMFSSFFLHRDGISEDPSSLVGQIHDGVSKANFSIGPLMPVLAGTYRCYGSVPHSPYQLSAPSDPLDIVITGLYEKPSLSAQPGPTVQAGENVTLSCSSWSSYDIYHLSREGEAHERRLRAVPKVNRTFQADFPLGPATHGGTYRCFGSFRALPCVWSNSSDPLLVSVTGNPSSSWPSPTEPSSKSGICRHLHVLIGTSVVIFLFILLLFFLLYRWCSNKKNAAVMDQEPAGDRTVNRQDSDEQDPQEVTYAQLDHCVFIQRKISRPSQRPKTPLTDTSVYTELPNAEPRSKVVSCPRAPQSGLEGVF

[4] = molecular target: KIR3DL2 mutant 11 (P179T, S181T) (human, UniProt P43630 22-455); assay: binding to cells transfected with KIR3DL2 mutants
Sequence of KIR3DL2 mutant 11 (P179T, S181T) (P43630 other isoform, or with tags, fused parts or gaps P179T S181T P179T S181T): as the sequence (P43630 other isoform, or with tags, fused parts or gaps E130S H131S R145S E130S H131S R145S) above, with S130E, S131H, S145R, P179T, S181T counted along it

[5] = molecular target: T2, human KIR3DL2 (wild-type, allele *002) (human, UniProt P43630 22-455); assay: flow cytometry on HUT78, COU-L and HEK-293T/KIR3DL2 Domain 0-eGFP cells; Biacore on rec KIR3DL2 chips
T2 construct: also called CD158k; WTaKIR3DL2
T2 sequence (P43630 22-455 E158D): as the sequence (P43630 other isoform, or with tags, fused parts or gaps E130S H131S R145S E130S H131S R145S) above, with S130E, S131H, S145R counted along it
Experimental: Antibodies which bind KIR3DL2 but not closely-related KIR3DL1 were generated by immunizing mice with recombinant KIR3DL2-Fc fusion protein. Supernatants (SN) of the growing hybridomas were tested by flow cytometry on Sézary Syndrome cell lines (HUT78, COU-L) and HEK-293T/KIR3DL2 Domain 0—eGFP. Potentially interesting hybridomas selected from the initial screening were cloned by limiting dilution techniques in 96-well plates. The secondary screen involved selection of hybridomas of interest by testing supernatants of the subclones by flow cytometry on HUT78, COU-L, HEK-293T/KIR3DL1 Domain 0—eGFP and HEK-293T/KIR3DL2 Domain 0—eGFP. Positive subclones were injected into mice to produce ascitis and antibodies of interest were purified before being tested in a Biacore assay using rec KIR3DL2 chips, followed by various assay formats based on binding to human KIR3DL2-expressing cells.

[6] = molecular target: T2, human KIR3DL2 (wild-type, allele *002); assay: immunohistochemistry (DAB) on frozen sections of RAJI-KIR3DL2 tumors and cell lines
Experimental: Tumor biopsies from RAJI-KIR3DL2 models and RAJI-KIR3DL2 cell lines were obtained and staining was performed on frozen samples using AZ158 antibody (see WO2010/081890) or antibodies 12B11 (see Example 1). KIR3DL2 was stained with anti-KIR3DL2 antibody by DAB chromogenic detection according to standard protocols, adapted for immunostaining with BenchMark XT (Ventana, Roche). For all staining control isotype (mIgG1) and control DAB were performed.

Sequence of KIR3DL2 mutant 11A1 (V178A, H180S) (P43630 other isoform, or with tags, fused parts or gaps V178A H180S V178A H180S): as the sequence (P43630 other isoform, or with tags, fused parts or gaps E130S H131S R145S E130S H131S R145S) above, with S130E, S131H, S145R, V178A, H180S counted along it
T1 sequence (P43630 other isoform, or with tags, fused parts or gaps I60N G62S I60N G62S): as the sequence (P43630 other isoform, or with tags, fused parts or gaps E130S H131S R145S E130S H131S R145S) above, with I60N, G62S, S130E, S131H, S145R counted along it

| binding result [1] | binding result [2] | binding result [3] | binding result [4] | binding result [5] | binding result [6] | Binder |
| --- | --- | --- | --- | --- | --- | --- |
| no binding |  |  |  |  |  | antibody 2B12 (antibody, V domains shown) VH: QIQLVQSGPELKKPGETVRISCKASGYTFTTAGMQWVQKTPGKGLKWIGWINSHSGVPKYAEDFKGRFAFSLETSASTAYLQISTLKNEDTATYFCARGGDEGVMDYWGQGTSVTVS VL: DIVMTQSHKFMSTSLGDRVSFTCKASQDVSTAVAWYQQKPGQSPKLLIYWTSTRHTGVPDRFTGSGSGTDYTLTISSVQAEDLALYYCQQHYSTPWTFGGGTKLEIK |
|  | no binding | no binding | no binding | binds |  | antibody 19H12 (antibody, IgG2b, V domains shown, Mouse monoclonal from a hybridoma; also called anti-KIR3DL2 19H12) VH: QIQLVQSGPELKKPGETVKISCKASGYTFTNFGMNWVKQAPGKGLKWMGWINTYTGEPTYADDFKGRFAFSLETSASTAYLQINNLKNEDMATYFCARNGNFGYYFDYWGQGTTLTVSS VL: DVLMTQTPLSLPVSLGDQASFSCRSSQNIVHSNGNTYLEWYLQKPGQSPSLLIYKVSNRFSGVPDRFSGSGSGTDFTLKITRVEAEDLGVYYCFQGSHVPFTFGSGTKLEIK |
|  | no binding |  | no binding |  | binds | antibody 12B11 (antibody, IgG1, V domains shown, Mouse monoclonal) VH: QLVQSGPELKNPGETVKISCKASGYTFTNYGMNWVKQAPGKGLKWMGWINTYTGEPTYADDFKGRFAFSLETSASTAYLQINNLKNEDTATYFCAHGPWLAYWGQGTLVTVS VL: DIKMTQSPSSMYASLGERVTITCKASQDINVYLSWFQQKPGKSPKTLIYRAIRLVDGVPSRFSGSGSGQDYSLTISSLDYEDMGIYYCLQYDELPYTFGGGTKLEIE |
